Test results from patent US20200247855A1 (published 2020).
Like-named read-outs stand apart in the source and are kept apart here.

What was measured:
[1] = target: T1, CCL19_HUMAN (human, UniProt Q99731 22-98); assay: BLI
T1 chain: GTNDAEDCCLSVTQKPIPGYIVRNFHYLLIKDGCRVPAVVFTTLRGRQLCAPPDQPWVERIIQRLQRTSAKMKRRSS

[2] = target: T2, CCL3L1_HUMAN (human, UniProt P16619 24-93); assay: BLI
T2 chain: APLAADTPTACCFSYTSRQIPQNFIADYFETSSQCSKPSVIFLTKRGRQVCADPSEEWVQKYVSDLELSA

[3] = target: T3, CCL4_HUMAN (human, UniProt P13236 24-92); assay: BLI
T3 chain: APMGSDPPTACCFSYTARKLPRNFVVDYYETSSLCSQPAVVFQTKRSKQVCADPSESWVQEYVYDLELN

[4] = target: T4, CCL18_HUMAN (human, UniProt P55774 21-89); assay: BLI
T4 chain: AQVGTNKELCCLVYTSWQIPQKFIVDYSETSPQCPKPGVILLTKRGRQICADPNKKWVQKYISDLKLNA

[5] = target: T5, CCL17_HUMAN (human, UniProt Q92583 24-94); assay: BLI
T5 chain: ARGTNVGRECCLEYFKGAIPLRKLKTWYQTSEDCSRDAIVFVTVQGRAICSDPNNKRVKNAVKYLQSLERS

[6] = target: T6, CCL23_HUMAN (human, UniProt P55773 22-120); assay: BLI
T6 chain: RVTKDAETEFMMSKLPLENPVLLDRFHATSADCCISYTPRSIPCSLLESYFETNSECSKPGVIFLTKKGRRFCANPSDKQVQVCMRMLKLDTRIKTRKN

[7] = target: T7, CCL14_HUMAN (human, UniProt Q16627 22-93); assay: BLI
T7 chain: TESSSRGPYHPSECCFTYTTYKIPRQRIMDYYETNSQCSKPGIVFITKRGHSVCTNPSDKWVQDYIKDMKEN

[8] = target: T8, CCL3_HUMAN (human, UniProt P10147 24-92); assay: BLI
T8 chain: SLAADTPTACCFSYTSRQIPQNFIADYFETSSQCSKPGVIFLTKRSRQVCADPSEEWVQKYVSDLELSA

[9] = target: T9, CCL24_HUMAN (human, UniProt O00175 27-104); assay: BLI
T9 chain: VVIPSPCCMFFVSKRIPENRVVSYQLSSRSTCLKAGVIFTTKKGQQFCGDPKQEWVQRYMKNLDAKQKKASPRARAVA

[10] = target: T10, CCL11_HUMAN (human, UniProt P51671 24-97); assay: BLI
T10 sequence (P51671 24-97): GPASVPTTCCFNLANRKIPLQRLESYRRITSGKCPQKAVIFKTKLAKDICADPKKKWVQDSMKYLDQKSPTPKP

[11] = target: T11, CCL21_HUMAN (human, UniProt O00585 24-134); assay: BLI
T11 chain: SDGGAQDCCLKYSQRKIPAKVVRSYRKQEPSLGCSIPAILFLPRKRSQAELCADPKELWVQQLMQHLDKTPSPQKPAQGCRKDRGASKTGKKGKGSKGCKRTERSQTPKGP

[12] = target: T12, CCL27_HUMAN (human, UniProt Q9Y4X3 25-112); assay: BLI
T12 chain: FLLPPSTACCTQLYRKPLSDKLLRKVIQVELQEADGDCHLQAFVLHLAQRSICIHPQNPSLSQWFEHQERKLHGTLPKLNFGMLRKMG

[13] = target: T13, CCL5_HUMAN (human, UniProt P13501 24-91); assay: BLI
T13 chain: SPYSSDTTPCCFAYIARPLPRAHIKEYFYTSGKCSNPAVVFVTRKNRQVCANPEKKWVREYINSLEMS

[14] = target: T14, CCL15_HUMAN (human, UniProt Q16663 22-113); assay: BLI
T14 chain: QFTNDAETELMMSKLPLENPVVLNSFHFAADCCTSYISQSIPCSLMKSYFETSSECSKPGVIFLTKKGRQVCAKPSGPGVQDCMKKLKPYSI

[15] = target: T15, CCL7_HUMAN (human, UniProt P80098 24-99); assay: BLI
T15 sequence (P80098 24-99): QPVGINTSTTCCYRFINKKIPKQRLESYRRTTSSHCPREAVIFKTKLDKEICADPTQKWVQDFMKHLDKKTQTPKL

[16] = target: T16, CCL13_HUMAN (human, UniProt Q99616 24-98); assay: BLI
T16 sequence (Q99616 24-98): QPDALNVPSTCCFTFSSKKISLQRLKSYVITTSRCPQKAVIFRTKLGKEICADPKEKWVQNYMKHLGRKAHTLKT

[17] = target: T17, CCL8_HUMAN (human, UniProt P80075 24-99); assay: BLI
T17 chain: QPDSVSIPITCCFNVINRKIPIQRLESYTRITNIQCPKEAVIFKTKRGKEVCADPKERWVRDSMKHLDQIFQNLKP

[18] = target: CXCL1_HUMAN (human, UniProt P09341 35-107); assay: BLI
Sequence of CXCL1_HUMAN (P09341 35-107): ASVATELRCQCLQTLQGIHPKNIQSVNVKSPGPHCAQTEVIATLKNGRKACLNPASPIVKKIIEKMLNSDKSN

[19] = target: CXCL8_HUMAN (human, UniProt P10145 28-99); assay: BLI
Sequence of CXCL8_HUMAN (P10145 28-99): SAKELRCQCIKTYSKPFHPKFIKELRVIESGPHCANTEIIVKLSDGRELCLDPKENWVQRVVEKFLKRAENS

[20] = target: T1, CCL19_HUMAN; assay: BLI
[21] = target: CCL20_HUMAN (human, UniProt P78556 27-96); assay: BLI
Sequence of CCL20_HUMAN (P78556 27-96): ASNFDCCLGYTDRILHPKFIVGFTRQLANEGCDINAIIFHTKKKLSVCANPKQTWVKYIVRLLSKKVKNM

[22] = target: T2, CCL3L1_HUMAN; assay: BLI
[23] = target: T3, CCL4_HUMAN; assay: BLI
[24] = target: T4, CCL18_HUMAN; assay: BLI
[25] = target: T18, CCL4L1_HUMAN (human, UniProt Q8NHW4 24-92); assay: BLI
T18 chain: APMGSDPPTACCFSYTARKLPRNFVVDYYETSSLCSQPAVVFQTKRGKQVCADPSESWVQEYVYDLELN

[26] = target: T5, CCL17_HUMAN; assay: BLI
[27] = target: T19, CCL16_HUMAN (human, UniProt O15467 24-120); assay: BLI
T19 chain: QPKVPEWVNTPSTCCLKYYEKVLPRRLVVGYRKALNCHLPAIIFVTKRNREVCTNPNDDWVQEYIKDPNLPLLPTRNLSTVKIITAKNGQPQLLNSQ

[28] = target: T6, CCL23_HUMAN; assay: BLI
[29] = target: T7, CCL14_HUMAN; assay: BLI
[30] = target: T8, CCL3_HUMAN; assay: BLI
[31] = target: T9, CCL24_HUMAN; assay: BLI
[32] = target: T10, CCL11_HUMAN; assay: BLI; remark: listed apart in the source
[33] = target: T11, CCL21_HUMAN; assay: BLI
[34] = target: T13, CCL5_HUMAN; assay: BLI
[35] = target: T14, CCL15_HUMAN; assay: BLI
[36] = target: T20, CCL1_HUMAN (human, UniProt P22362 24-96); assay: BLI
T20 chain: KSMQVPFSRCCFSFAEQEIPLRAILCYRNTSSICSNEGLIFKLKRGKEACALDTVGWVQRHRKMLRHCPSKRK

[37] = target: T15, CCL7_HUMAN; assay: BLI; remark: listed apart in the source
[38] = target: T21, CCL22_HUMAN (human, UniProt O00626 25-93); assay: BLI
T21 chain: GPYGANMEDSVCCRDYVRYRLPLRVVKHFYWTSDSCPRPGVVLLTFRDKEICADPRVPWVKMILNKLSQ

[39] = target: T16, CCL13_HUMAN; assay: BLI; remark: listed apart in the source
[40] = target: CCL2_HUMAN (human, UniProt P13500 24-99); assay: BLI
Sequence of CCL2_HUMAN (P13500 24-99): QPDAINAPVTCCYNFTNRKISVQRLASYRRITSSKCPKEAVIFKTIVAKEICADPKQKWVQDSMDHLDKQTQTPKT

[41] = target: T17, CCL8_HUMAN; assay: BLI
[42] = target: CXCL6; assay: BLI; previously obtained data
[43] = target: CXCL2; assay: BLI
[44] = target: CXCL5; assay: BLI

B1: P1243:G4S:P1156 (designed binder)
chain: RNHTEDNSTEYYDYEEARCACPARHLNNTNGTVLKLLGCHYFCNGTLCTAPDGYPCYNLTAQQVRTLTTYPNTSCAVGVCMKGTCVKNGTMEQCFKTPGGGGSADDDNELFTVQYCGMNCTKDEGGTWTGCTGKKEGCKCYHESGKNYGLCLSTEYTDFSQYGNPSDSEIEAAKPKRSDTLSH
- Kd [1]: 2.92 nM
- Kd [2]: 4.06 nM
- Kd [3]: 19.4 nM
- Kd [4]: 0.543 nM
- Kd [5]: 3.51 nM
- Kd [6]: 0.632 nM
- Kd [7]: 1.99 nM
- Kd [8]: 16.4 nM
- Kd [9]: 16.4 nM
- Kd [10]: 19.7 nM
- Kd [11]: 53.8 nM
- Kd [12]: 24.4 nM
- Kd [13]: 8.95 nM
- Kd [14]: 8.71 nM
- Kd [15]: 49 nM
- Kd [16]: 1.33 nM
- Kd [17]: 381 nM
- Kd [18]: 17.4 nM
- Kd [19]: 7.63 nM

B2: P991_AMBCA (other)
chain: ENGEGTTQPDYDNSTDYYNYEDFKCTCPAPHLNNTNGTVMKPIGCYYTCNVTRCTAPDTYPCYNLTEHQAKNLTTSPTTLCAVGNCDHGICVPNGTKELCFKAPNLEE
- Kd [20]: 12 nM
- Kd [21]: 15.4 nM
- Kd [22]: 2.99 nM
- Kd [23]: 3.68 nM
- Kd [24]: 0.252 nM
- Kd [25]: 1.34 nM
- Kd [26]: 7.37 nM
- Kd [27]: 0.536 nM
- Kd [28]: 5.87 nM
- Kd [29]: 0.711 nM
- Kd [30]: 2.24 nM
- Kd [31]: 5.42 nM
- Kd [32]: 1.9 nM
- Kd [33]: 26.1 nM
- Kd [34]: 0.869 nM
- Kd [35]: 109 nM
- Kd [36]: 8.6 nM
- Kd [37]: 0.241 nM
- Kd [38]: 3.01 nM
- Kd [39]: 0.191 nM
- Kd [40]: 24.7 nM
- Kd [41]: 15.9 nM

B3: P1156 (other)
chain: ADDDNELFTVQYCGMNCTKDEGGTWTGCTGKKEGCKCYHESGKNYGLCLSTEYTDFSQYGNPSDSEIEAAKPKRSDTLSH
- Kd [42]: 62.7 nM
- Kd [43]: 30.3 nM
- Kd [44]: 39.9 nM
